± gives the standard deviation of the averaged measurements.
System: Sindbis virus TE/5'2J-GFP
Test: percent infected (GFP+ in RFP+ ISG-expressing cells); higher = more infection (less antiviral activity)
Protocol: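 Confirmatory testing of 87 ISGs. Triplicate wells of BHK/HA-Zeo (control) or BHK/NZAP-Zeo (ZAP) cells were transduced with lentiviruses co-expressing a human ISG plus TagRFP, then infected 48 h later with SINV TE/5'2J-GFP (moi 5). The % GFP+ cells among RFP+ cells was measured by flow cytometry at 8 h post infection. Fluc lentivirus served as control. Three independent experiments.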

[1] = experiment: confirmatory screen 1, BHK/HA-Zeo (control)
[2] = experiment: confirmatory screen 1, BHK/NZAP-Zeo (ZAP)
[3] = experiment: confirmatory screen 2, BHK/HA-Zeo (control)
[4] = experiment: confirmatory screen 2, BHK/NZAP-Zeo (ZAP)
[5] = experiment: confirmatory screen 3, BHK/HA-Zeo (control)
[6] = experiment: confirmatory screen 3, BHK/NZAP-Zeo (ZAP)
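Note: Interferon-defective BHK-21 derivatives, ZAP line overexpressing the rat ZAP N-terminal zinc finger domain fused to Zeocin resistance, GFP scored within live singlet TagRFP+ cells.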

Sequence	percent infected [1] [%]	percent infected [2] [%]	percent infected [3] [%]	percent infected [4] [%]	percent infected [5] [%]	percent infected [6] [%]
MAQASPPRPERVLGASSPEARPAQEALLLPTGVFQVAEKMEKRTCALCPKDVEYNVLYFAQSENIAAHENCLLYSSGLVECEDQDPLNPDRSFDVESVKKEIQRGRKLKCKFCHKRGATVGCDLKNCNKNYHFFCAKKDDAVPQSDGVRGIYKLLCQQHAQFPIIAQSAKFSGVKRKRGRKKPLSGNHVQPPETMKCNTFIRQVKEEHGRHTDATVKVPFLKKCKEAGLLNYLLEEILDKVHSIPEKLMDETTSESDYEEIGSALFDCRLFEDTFVNFQAAIEKKIHASQQRWQQLKEEIELLQDLKQTLCSFQENRDLMSSSTSISSLSY [PHF11]	76.3 ± 5.1	50.3 ± 2.9	91.99 ± 0.75	93.69 ± 0.2	89.11 ± 0.58	89.89 ± 0.28
MASGRARCTRKLRNWVVEQVESGQFPGVCWDDTAKTMFRIPWKHAGKQDFREDQDAAFFKAWAIFKGKYKEGDTGGPAVWKTRLRCALNKSSEFKEVPERGRMDVAEPYKVYQLLPPGIVSGQPGTQKVPSKRQHSSVSSERKEEEDAMQNCTLSPSVLQDSLNNEEEGASGGAVHSDIGSSSSSSSPEPQEVTDTTEAPFQGDQRSLEFLLPPEPDYSLLLTFIYNGRVVGEAQVQSLDCRLVAEPSGSESSMEQVLFPKPGPLEPTQRLLSQLERGILVASNPRGLFVQRLCPIPISWNAPQAPPGPGPHLLPSNECVELFRTAYFCRDLVRYFQGLGPPPKFQVTLNFWEESHGSSHTPQNLITVKMEQAFARYLLEQTPEQQAAILSLV [IRF9]	95.7 ± 1.1	77.9 ± 2.2	95.77 ± 0.51	95.5 ± 0.37	94.29 ± 0.52	92.97 ± 0.35
MASVAVDPQPSVVTRVVNLPLVSSTYDLMSSAYLSTKDQYPYLKSVCEMAENGVKTITSVAMTSALPIIQKLEPQIAVANTYACKGLDRIEERLPILNQPSTQIVANAKGAVTGAKDAVTTTVTGAKDSVASTITGVMDKTKGAVTGSVEKTKSVVSGSINTVLGSRMMQLVSSGVENALTKSELLVEQYLPLTEEELEKEAKKVEGFDLVQKPSYYVRLGSLSTKLHSRAYQQALSRVKEAKQKSQQTISQLHSTVHLIEFARKNVYSANQKIQDAQDKLYLSWVEWKRSIGYDDTDESHCAEHIESRTLAIARNLTQQLQTTCHTLLSNIQGVPQNIQDQAKHMGVMAGDIYSVFRNAASFKEVSDSLLTSSKGQLQKMKESLDDVMDYLVNNTPLNWLVGPFYPQLTESQNAQDQGAEMDKSSQETQRSEHKTH [ADFP]	91.4 ± 2	68 ± 2.8	96.84 ± 0.14	95.665 ± 0.052	88.3 ± 0.9	89.1 ± 1.9
MASVIPASNRSMRSDRNTYVGKRFVHVKNPYLDLMDEDILYHLDLGTKTHNLPAMFGDVKFVCVGGSPNRMKAFALFMHKELGFEEAEEDIKDICAGTDRYCMYKTGPVLAISHGMGIPSISIMLHELIKLLHHARCCDVTIIRIGTSGGIGIAPGTVVITDIAVDSFFKPRFEQVILDNIVTRSTELDKELSEELFNCSKEIPNFPTLVGHTMCTYDFYEGQGRLDGALCSFSREKKLDYLKRAFKAGVRNIEMESTVFAAMCGLCGLKAAVVCVTLLDRLDCDQINLPHDVLVEYQQRPQLLISNFIRRRLGLCD [UPP2]	74.9 ± 4.2	43.1 ± 2.3	89.79 ± 0.72	93.4 ± 1.3	83.4 ± 1.3	88.3 ± 1.5
MATERSRSAMDSPVPASMFAPEPSSPGAARAAAAAARLHGGFDSDCSEDGEALNGEPELDLTSKLVLVSPTSEQYDSLLRQMWERMDEGCGETIYVIGQGSDGTEYGLSEADMEASYATVKSMAEQIEADVILLRERQEAGGRVRDYLVRKRVGDNDFLEVRVAVVGNVDAGKSTLLGVLTHGELDNGRGFARQKLFRHKHEIESGRTSSVGNDILGFDSEGNVVNKPDSHGGSLEWTKICEKSTKVITFIDLAGHEKYLKTTVFGMTGHLPDFCMLMVGSNAGIVGMTKEHLGLALALNVPVFVVVTKIDMCPANILQETLKLLQRLLKSPGCRKIPVLVQSKDDVIVTASNFSSERMCPIFQISNVTGENLDLLKMFLNLLSPRTSYREEEPAEFQIDDTYSVPGVGTVVSGTTLRGLIKLNDTLLLGPDPLGNFLSIAVKSIHRKRMPVKEVRGGQTASFALKKIKRSSIRKGMVMVSPRLNPQASWEFEAEILVLHHPTTISPRYQAMVHCGSIRQTATILSMDKDCLRTGDKATVHFRFIKTPEYLHIDQRLVFREGRTKAVGTITKLLQTTNNSPMNSKPQQIKMQSTKKGPLTKRDEGGPSGGPAVGAPPPGDEASSVGAGQPAASSNLQPQPKPSSGGRRRGGQRHKVKSQGACVTPASGC [GTPBP1]	93.61 ± 0.15	64.4 ± 7.3	97.42 ± 0.24	96.28 ± 0.23	88.74 ± 0.67	90.6 ± 0.93
MAVMEMACPGAPGSAVGQQKELPKAKEKTPPLGKKQSSVYKLEAVEKSPVFCGKWEILNDVITKGTAKEGSEAGPAAISIIAQAECENSQEFSPTFSERIFIAGSKQYSQSESLDQIPNNVAHATEGKMARVCWKGKRRSKARKKRKKKSSKSLAHAGVALAKPLPRTPEQESCTIPVQEDESPLGAPYVRNTPQFTKPLKEPGLGQLCFKQLGEGLRPALPRSELHKLISPLQCLNHVWKLHHPQDGGPLPLPTHPFPYSRLPHPFPFHPLQPWKPHPLESFLGKLACVDSQKPLPDPHLSKLACVDSPKPLPGPHLEPSCLSRGAHEKFSVEEYLVHALQGSVSSGQAHSLTSLAKTWAARGSRSREPSPKTEDNEGVLLTEKLKPVDYEYREEVHWATHQLRLGRGSFGEVHRMEDKQTGFQCAVKKVRLEVFRAEELMACAGLTSPRIVPLYGAVREGPWVNIFMELLEGGSLGQLVKEQGCLPEDRALYYLGQALEGLEYLHSRRILHGDVKADNVLLSSDGSHAALCDFGHAVCLQPDGLGKSLLTGDYIPGTETHMAPEVVLGRSCDAKVDVWSSCCMMLHMLNGCHPWTQFFRGPLCLKIASEPPPVREIPPSCAPLTAQAIQEGLRKEPIHRVSAAELGGKVNRALQQVGGLKSPWRGEYKEPRHPPPNQANYHQTLHAQPRELSPRAPGPRPAEETTGRAPKLQPPLPPEPPEPNKSPPLTLSKEESGMWEPLPLSSLEPAPARNPSSPERKATVPEQELQQLEIELFLNSLSQPFSLEEQEQILSCLSIDSLSLSDDSEKNPSKASQSSRDTLSSGVHSWSSQAEARSSSWNMVLARGRPTDTPSYFNGVKVQIQSLNGEHLHIREFHRVKVGDIATGISSQIPAAAFSLVTKDGQPVRYDMEVPDSGIDLQCTLAPDGSFAWSWRVKHGQLENRP [MAP3K14]	96.4 ± 1.2	76.4 ± 1.8	97.1 ± 0.15	92.2 ± 0.5	86.1 ± 1.7	80.9 ± 2.1
MDAPHSKAALDSINELPENILLELFTHVPARQLLLNCRLVCSLWRDLIDLMTLWKRKCLREGFITKDWDQPVADWKIFYFLRSLHRNLLRNPCAEEDMFAWQIDFNGGDRWKVESLPGAHGTDFPDPKVKKYFVTSYEMCLKSQLVDLVAEGYWEELLDTFRPDIVVKDWFAARADCGCTYQLKVQLASADYFVLASFEPPPVTIQQWNNATWTEVSYTFSDYPRGVRYILFQHGGRDTQYWAGWYGPRVTNSSIVVSPKMTRNQASSEAQPGQKHGQEEAAQSPYRAVVQIF [FBXO6]	95.42 ± 0.3	65.4 ± 1.8	94.14 ± 0.54	94.48 ± 0.2	90.9 ± 1.1	91.46 ± 0.7
MDENNGLLLLELNPPNPWDLQPRSPEELAFGEVQITYLTHACMDLKLGDKRMVFDPWLIGPAFARGWWLLHEPPSDWLERLCQADLIYISHLHSDHLSYPTLKKLAGRRPDIPIYVGNTERPVFWNLNQSGVQLTNINVVPFGIWQQVDKNLRFMILMDGVHPEMDTCIIVEYKGHKILNIVDCTRPNGGRLPMKVALMMSDFAGGASGFPMTFSGGKFTEEWKAQFIKTERKKLLNYKARLVKNLQPRIYCPFAGYFVESHPSDKYIKETNTKNDPNELNNLIKKNSDVITWTPRPGATLDLGRMLKDRTDSKGIIEPPEGTKIYKDSWDFEPYLEILNAALGDEIFLHSSWIKEYFTWAGFKDYNLVVRMIETDEDFNPFPGGYDYLVDFLDLSFPKERPQREHPYEEIHSRVDVIRHVVKNGLLWDELYIGFQTRLQRDPDIYHHLFWNHFQIKLPLTPPNWKSFLMCCEQNGPVILQFSTERTNEPNRNKFSVENKA [CMAH]	94.7 ± 1.2	75.3 ± 1.9	95.1 ± 0.29	94.26 ± 0.25	93.1 ± 0.62	92.979 ± 0.089
MDFKIEHTWDGFPVKHEPVFIRLNPGDRGVMMDISAPFFRDPPAPLGEPGKPFNELWDYEVVEAFFLNDITEQYLEVELCPHGQHLVLLLSGRRNVWKQELPLSFRMSRGETKWEGKAYLPWSYFPPNVTKFNSFAIHGSKDKRSYEALYPVPQHELQQGQKPDFHCLEYFKSFNFNTLLGEEWKQPESDLWLIEKCDI [C4orf33]	96.1 ± 1.3	85.8 ± 1.1	96.38 ± 0.37	94.84 ± 0.39	93.81 ± 0.1	93.56 ± 0.3
MDSRVSELFGGCCRPGGGPAVGGTLKARGAGSSSGCGGPKGKKKNGRNRGGKANNPPYLPPEAEDGNIEYKLKLVNPSQYRFEHLVTQMKWRLQEGRGEAVYQIGVEDNGLLVGLAEEEMRASLKTLHRMAEKVGADITVLREREVDYDSDMPRKITEVLVRKVPDNQQFLDLRVAVLGNVDSGKSTLLGVLTQGELDNGRGRARLNLFRHLHEIQSGRTSSISFEILGFNSKGEVVNYSDSRTAEEICESSSKMITFIDLAGHHKYLHTTIFGLTSYCPDCALLLVSANTGIAGTTREHLGLALALKVPFFIVVSKIDLCAKTTVERTVRQLERVLKQPGCHKVPMLVTSEDDAVTAAQQFAQSPNVTPIFTLSSVSGESLDLLKVFLNILPPLTNSKEQEELMQQLTEFQVDEIYTVPEVGTVVGGTLSSGICREGDQLVVGPTDDGCFLELRVCSIQRNRSACRVLRAGQAATLALGDFDRALLRKGMVMVSPEMNPTICSVFEAEIVLLFHATTFRRGFQVTVHVGNVRQTAVVEKIHAKDKLRTGEKAVVRFRFLKHPEYLKVGAKLLFREGVTKGIGHVTDVQAITAGEAQANMGF [GTPBP2]	91.5 ± 3.9	64.4 ± 1.3	94.39 ± 0.34	94.94 ± 0.23	94 ± 1.1	93.43 ± 0.41
MEKGPVRAPAEKPRGARCSNGFPERDPPRPGPSRPAEKPPRPEAKSAQPADGWKGERPRSEEDNELNLPNLAAAYSSILSSLGENPQRQGLLKTPWRAASAMQFFTKGYQETISDVLNDAIFDEDHDEMVIVKDIDMFSMCEHHLVPFVGKVHIGYLPNKQVLGLSKLARIVEIYSRRLQVQERLTKQIAVAITEALRPAGVGVVVEATHMCMVMRGVQKMNSKTVTSTMLGVFREDPKTREEFLTLIRS [GCH1]	95.976 ± 0.021	74 ± 2	95.09 ± 0.34	93.4 ± 1.6	92.6 ± 0.98	92.19 ± 0.15
